Measurements as given in paper PMC13376213, “Systematic discovery of motif-based interactions of the auxiliary domains of USP family deubiquitinases” (Nature Communications, 2026).

Molecular target: USP11 DUSP-UBL tandem domain (human) (UniProt P51784)
Experiment: fluorescence polarisation; displacement: serial dilution of the unlabelled peptide against the domain (at two-fold the KD of the FITC-labelled peptide) in complex with 10 nM FITC-labelled peptide; 50 mM phosphate buffer pH 7.4; room temperature; three technical replicates; sigmoidal dose-response fit

Chain of USP11 DUSP-UBL tandem domain (human) (P51784 whole entry, the tested form may be a part): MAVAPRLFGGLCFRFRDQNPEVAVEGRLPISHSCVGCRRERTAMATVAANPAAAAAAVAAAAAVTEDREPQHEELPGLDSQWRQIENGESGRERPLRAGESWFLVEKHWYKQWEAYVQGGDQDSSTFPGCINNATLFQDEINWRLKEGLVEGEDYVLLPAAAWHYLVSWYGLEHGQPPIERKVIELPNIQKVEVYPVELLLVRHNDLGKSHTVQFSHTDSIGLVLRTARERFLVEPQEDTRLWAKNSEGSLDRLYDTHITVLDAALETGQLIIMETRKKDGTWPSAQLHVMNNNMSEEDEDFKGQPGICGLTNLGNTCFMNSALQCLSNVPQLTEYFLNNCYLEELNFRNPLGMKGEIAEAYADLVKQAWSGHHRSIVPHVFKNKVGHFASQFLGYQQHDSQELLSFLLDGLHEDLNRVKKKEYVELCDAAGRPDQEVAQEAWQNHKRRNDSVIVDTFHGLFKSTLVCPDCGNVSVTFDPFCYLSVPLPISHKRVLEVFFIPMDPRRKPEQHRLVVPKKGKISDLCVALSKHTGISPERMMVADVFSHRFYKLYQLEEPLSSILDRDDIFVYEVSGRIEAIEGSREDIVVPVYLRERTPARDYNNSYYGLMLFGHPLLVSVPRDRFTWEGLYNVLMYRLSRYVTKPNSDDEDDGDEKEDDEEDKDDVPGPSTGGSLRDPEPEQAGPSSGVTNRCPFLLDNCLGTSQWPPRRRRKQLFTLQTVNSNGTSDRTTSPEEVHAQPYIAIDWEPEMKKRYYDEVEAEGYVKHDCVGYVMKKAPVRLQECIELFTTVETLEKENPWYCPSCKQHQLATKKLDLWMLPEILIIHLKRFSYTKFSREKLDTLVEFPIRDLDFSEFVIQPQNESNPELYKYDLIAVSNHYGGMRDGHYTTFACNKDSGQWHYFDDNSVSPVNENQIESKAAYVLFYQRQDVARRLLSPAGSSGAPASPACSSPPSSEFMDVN

Kd: 207 µM
Binder: Ac-SAVTYPDWIGQSYSEV-NH2 [ORAI1 48-63 peptide, unlabelled]
